In patent US20260209705A1, “ENGINEERED NATURAL KILLER CELLS AND RELATED METHODS” (ASTELLAS PHARMA INC., priority 2022, published 2026):

T1: claudin 6 (CLDN6) (UniProt P56747)
T1 sequence (looked up): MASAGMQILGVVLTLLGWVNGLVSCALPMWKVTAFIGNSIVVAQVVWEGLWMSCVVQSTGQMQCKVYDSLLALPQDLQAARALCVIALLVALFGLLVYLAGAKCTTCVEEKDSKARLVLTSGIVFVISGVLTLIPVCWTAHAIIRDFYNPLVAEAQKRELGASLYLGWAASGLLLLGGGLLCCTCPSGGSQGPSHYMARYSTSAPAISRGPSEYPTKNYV

B1: ASP1650 (antibody, from another filing, V domains shown)
VH: EVQLQQSGPELVKPGASMKISCKASGYSFTGYTMNWVKQSHGKNLEWIGLINPYNGGTIYNQKFKGKATLTVDKSSSTAYMELLSLTSEDSAVYYCARDYGFVLDYWGQGTTLTVSS
VL: IVLTQSPAIMSASPGEKVTITCSASSSVSYLHWFQQKPGTSPKLWVYSTSNLPSGVPARFGGSGSGTSYSLTISRMEAEDAATYYCQQRSIYPPWTFGGGTKLEIKR

Columns and labels:
claudin 6 (CLDN6) = molecular target: T1, claudin 6 (CLDN6); test: cell-based or functional assay
[1] = system: human PSC-derived engineered NK cells; test: effect of UM171 on NK differentiation (Step 2); assay type: cell-based; conditions: 35 nM UM171 versus no UM171
Text: FIGS. 2A-2C are bar graphs illustrating the cell yield (FIG. 2A), percentage of CD56+CD45^+ cells (FIG. 2B), and cell viability (FIG. 2C) resulting from the method of producing human PSC-derived engineered NK cells (FcR-UDC I-NK cells) described herein.
Parental and engineered UDC PSCs (collectively, “PSCs”) were thawed, expanded, and cultured in mTeSR™ (STEMCELL Technologies, Cambridge, MA) feeder-free, animal component-free media for up to seven days on vitronectin. The PSCs were dissociated into single cells and transferred into microwell plates and cultured in STEMdiff™ APEL™2 and Gibco® PFHM-II media (STEMCELL Technologies, Cambridge, MA; ThermoFisher Scientific, Waltham, MA) for fourteen days to differentiate into precursor cells (via embryoid bodies) capable of differentiating to hematopoietic cell types, endothelial cell types, and/or mesodermal derivatives. The media was supplemented with BMP4 (20 ng/ml), VEGF (20 ng/ml), and SCF (40 ng/ml). Half media changes were performed every other day starting on day 3. The embryoid bodies were replated on DLL4/Retronectin-coated T75 flasks to differentiate into NK cells. The embryoid bodies were cultured under feeder free conditions in differentiation media comprising SCF (20 ng/ml), IL-7 (20 ng/ml), IL-15 (10 ng/ml), Flt3L (10 ng/mL), IL-3 ([…]) and 35 nM UM171 for 21 days in modified DMEM/F12. […]

[2] = system: Raji (Burkitt's lymphoma) cells; test: Raji i.p. tumor model, study of FIG. 23 (Table 2); assay type: in vivo, NSG mice; conditions: single agent alone, compared to untreated
Protocol: FIG. 23 is a graphic of an efficacy study of FcR-UDC I-NK cells plus Rituximab in a Raji i.p. tumor model. NSG mice were irradiated and injected (i.p.) with Raji tumor cells (3×10^5). At day 4, FcR-UDC I-NK cells or PB-NK cells (each 5×10^6) with or without Rituximab (300 μg) was administered. At day 7, an additional dose of Rituximab (300 μg) was administered. Imaging/monitoring of the NSG mice occur at indicated time points through day 120.
FIGS. 24A-24C illustrate (FIG. 24A) a survival curve and (FIGS. 24B-24C) tumor burden following the efficacy study of FIG. 23. […] In FIGS. 24B-24C, FcR-UDC I-NK cells plus Rituximab and PB-NK plus Rituximab provided a durable response in delaying tumor onset through day 60 in 50% of the mice.
The efficacy of the UDC-NK cells against tumors in vivo was studied in a Raji intraperitoneal (i.p.) tumor model.
In FIG. 23, NSG mice were irradiated and injected i.p. with Raji (Burkitt's lymphoma) cells (3×10^5 cells). Raji cells are resistant to NK cells in the absence of an anti-CD20 antibody. At day four, 5×10^6 FcR-UDC I-NK cells and/or Rituximab (300 μg) was administered to the NSG mice. At day 7, a second dose of Rituximab (300 μg) was administered. […] The NSG mice were imaged and assessed for survival, BLI (tumor burden), and body weight and other health conditions at various days through day 121. […]

Row | Molecule | EC50 of ADCC (specific lysis of PA-1 cells by FcR-UDC I-NK cells, four-hour flow-based assay, antibody titrated) (claudin 6 (CLDN6)) [ng/mL] | also measured
1 | ASP1893 mAb (antibody) | 4.32 | 
2 | Br.Br.Cn1nnc(-c2ccc3c(c2)[nH]c2nc(Cc4ccccc4)nc(N[C@H]4CC[C@H](N)CC4)c23)n1.O.O [UM171, (1r,4r)-N1-(2-benzyl-7-(2-methyl-2H-tetrazol-5-yl)-9H-pyrimidol [4,5-b]indol-4-yl)cyclohexane-1,4-diamine dihydrobromide dihydrate] |  | UDC-NK cell yield during NK differentiation [1]: improved UDC-NK cell yield
3 | Rituximab |  | mean survival [2]: increased mean survival
4 | B1 | 8.49 | 
